# System: MS2 coat protein
# Test: apparent KD of MS2 coat protein; designed switch direction (-1 OFF switch, 1 ON switch): -1; higher = weaker reporter binding
# Summary of the method: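 Stalled E. coli RNA polymerase transcribed designed RNA switches on Illumina chips, which were then titrated with SNAP-549-labelled MS2 coat protein, doubling from 0.7 or 1.5 nM to 3 µM. Steps lasted from 0.8–1.5 h at the lowest concentration to 10–20 min at the highest. The apparent KD is each design's median over clusters of curve-fitted normalised fluorescence.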
# [1] = Eterna round: R95, input ligand: FMN 200 uM
# [2] = Eterna round: R95, input ligand: microRNA oligo, concentration not stated
# [3] = Eterna round: R95, input ligand: none
# [4] = input ligand: microRNA oligo, concentration not stated
Sequence,apparent KD of MS2 coat protein (input ligand: FMN 200 uM) [nM],apparent KD of MS2 coat protein (input ligand: none) [nM],other results
UAUACACAUGAGGAUCACCCAUGUGAGGAUAUGUACAACAACAAGACGGAAAAAAAAUACAGAAGGCACAAAUA [JR_Exclusion1_Sub028] (puzzle: Exclusion 1),–,–,apparent KD of MS2 coat protein [1]: 22.7 nM; apparent KD of MS2 coat protein [2]: 25.7 nM; apparent KD of MS2 coat protein [3]: 32.4 nM
UAUACUAGAUAGGAUAUACUAUAUAUAUUAUUCGUAGAAGGAUCUACAUGAGGAUCACCCAUGUUAACAGCAGU [JR_E6_Sub006] (puzzle: Exclusion 6),–,–,apparent KD of MS2 coat protein [2]: 37.2 nM
"UAUAUAUAGUAAGGAUAUGUAAUAAUUUUAUAAACAGAAGGUACUGACAUGAGGAUCACCCAUGUUUUAGUGUGGGCAUGUAGA [JMF's solution 30] (Eterna round: R96, puzzle: Exclusion NG 1)",–,–,apparent KD of MS2 coat protein [4]: 73.2 nM
"UAUAUAUAGUAAGGAUAUGUAAUUCUUUUAUAAACAGAAGGUACUGACAUGAGGAUCACCCAUGUUUUAGUGUGGGCAUGUAGA [JMF's solution 34] (Eterna round: R96, puzzle: Exclusion NG 1)",–,–,apparent KD of MS2 coat protein [4]: 53.1 nM
"UAUAUAUAGUAAGGAUAUGUAUAUAAUUUAUAAACAGAAGGUACUGACAUGAGGAUCACCCAUGUUUUAGUGUGGGCAUGUAGA [JMF's solution 55] (Eterna round: R96, puzzle: Exclusion NG 1)",–,–,apparent KD of MS2 coat protein [4]: 64.4 nM
"UAUAUAUAGUAAGGAUAUGUAUUAAUUUAAUAAACAGAAGGUACUGACAUGAGGAUCACCCAUGUUUUAGUGUGGGCAUGUAGA [JMF's solution 83] (Eterna round: R96, puzzle: Exclusion NG 1)",–,–,apparent KD of MS2 coat protein [4]: 64.3 nM
"UAUAUAUAGUAAGGAUAUGUAUUAAUUUGAUAAACAGAAGGUACUGACAUGAGGAUCACCCAUGUUUUAGUGUGGGCAUGUAGA [JMF's solution 84] (Eterna round: R96, puzzle: Exclusion NG 1)",–,–,apparent KD of MS2 coat protein [4]: 75.6 nM
"UAUAUGUGAGGAUAUCCUUUAUUAAUUAUUAUAUUAUAUAUGGAGAAGGCACAUGAGGAUCACCCAUGUUAUAU [lam1] (Eterna round: R97, puzzle: Exclusion 4)",72.8,42.1,–
"UAUUAAACAAGCAGAUCCCACAUGAGGAUCACCCAUGUGCUCGUCUUAUAAGGUACUGUGACGAUAGUCACGGUACC [Mat - Sensor, turn-off var - Eli Mod - D62] (Eterna round: R97, puzzle: Sensor, turn-off variant 1)",49,54.5,–
"UAUUAAACAAGCGGAUCCCACAUGAGGAUCACCCAUGUGCUCGUCUUAUAAGGUACUGUGACGAAAGUCACGGUACC [Sensor 3, v1 - 91 v13] (Eterna round: R97, puzzle: Sensor, turn-off variant 1)",25,28.9,–
"UAUUAACAAGCUAGAUCCCACAUGAGGAUCACCCAUGUGCUCGUCUUAUAAGGUACUGUGACGAAAGUCACGGUACC [Sensor 3, v1 - 78] (puzzle: Sensor v3, turn-off variant 1)",–,–,apparent KD of MS2 coat protein [1]: 37.8 nM; apparent KD of MS2 coat protein [2]: 188 nM; apparent KD of MS2 coat protein [3]: 32.3 nM
"UAUUAACAAGCUAGAUCCUACAUGAGGAUCACCCAUGUGCUCGUCUUAUAAGGUACUGUGACGAAAGUCACGGUACC [Sensor 3, v1 - 76] (puzzle: Sensor v3, turn-off variant 1)",–,–,apparent KD of MS2 coat protein [1]: 265 nM; apparent KD of MS2 coat protein [2]: 42.4 nM; apparent KD of MS2 coat protein [3]: 243 nM
"UAUUAAGCAAGCAGAUCCCACAUGAGGAUCACCCAUGUGCUCGUCUUAUAAGGUACUGUGACAAAAGUCACGGUACC [Mat - Sensor, turn-off var - Eli Mod - D74] (Eterna round: R97, puzzle: Sensor, turn-off variant 1)",121,135,–
UAUUAAUGCAAGGAUAUGCUUUUAAUUUUUUUUGCAGAAGGUGCAACAUGAGGAUCACCCAUGUUUGAGGGUAU [JR_E6_Sub030] (puzzle: Exclusion 6),–,–,apparent KD of MS2 coat protein [1]: 68.4 nM; apparent KD of MS2 coat protein [2]: 59 nM; apparent KD of MS2 coat protein [3]: 53.8 nM
"UAUUAGCAAGCAAGAUCCCACAUGAGGAUCACCCAUGUGCUCGUCGCAUCCAGAAUUACUGGGUGCGCUCGUCUUAU [Winner reversed engineered 16] (Eterna round: R97, puzzle: Sensor, turn-off variant 1)",168,169,–
"UAUUAGCAAGCGAGAUCCCACAUGAGGAUCACCCAUGUAAAGCAUCCAGAAUUACUGGGUGCAAAAGCUCGUCUUAU [Winner reversed engineered 6] (Eterna round: R97, puzzle: Sensor, turn-off variant 1)",29.4,31.7,–
"UAUUAGCAAGCGAGAUCUCACAUGAGGAUCACCCAUGUGCUCGUCUUAUAAGGUACUGUGACGAUAGUCACGGUACC [Mat - Sensor, turn-off var - Eli Mod - D38] (Eterna round: R97, puzzle: Sensor, turn-off variant 1)",15.3,14.6,–

Sequence,apparent KD of MS2 coat protein (input ligand: FMN 200 uM) [nM],apparent KD of MS2 coat protein (input ligand: none) [nM],other results
"UAUUAGCAAGUAAGAUCCCACAUGAGGAUCACCCAUGUGCUCGUCUUAUAAGGUACUGUGACGAUAGUCACGGUACC [Mat - Sensor, turn-off var - Eli Mod - D44] (Eterna round: R97, puzzle: Sensor, turn-off variant 1)",18.3,17.8,–
"UAUUAGCAAGUAAGGUCCCACAUGAGGAUCACCCAUGUGCUCGUCACCUCAGGUACGGAGCGGAAACUCCCGAUAUG [Sensor-V1 #91] (Eterna round: R97, puzzle: Sensor, turn-off variant 1)",81.4,83.1,–
"UAUUAGUAAGGAUAUGAGACGUAGGACGCAAGUCCUACGUCUCAGAAGGUACAUGAGGAUCACCCAUGUCUAUU [Mod of Fisker 10 - Jieux - Exclusion 4] (Eterna round: R97, puzzle: Exclusion 4)",21.2,22.2,–
"UAUUAUCAAGCAAGAUCCCACAUGAGGAUCACCCAUGUGCUCGUCUUAUUUCUGGCCUUAUUGGUCUCUCGUCUAAU [JR_STOV1_v2_Sub095] (Eterna round: R97, puzzle: Sensor, turn-off variant 1)",25.8,26.7,–
"UAUUCACAAGCGAGAUCCCACAUGAGGAUCACCCAUGUGCUCGUCUUAUAAGGUACUGUGACGAUAGUCACGGUACC [Mat - Sensor, turn-off var - Eli Mod - D86] (Eterna round: R97, puzzle: Sensor, turn-off variant 1)",17.4,15,–
"UAUUCGCAAGUGAGAUCCCACAUGAGGAUCACCCAUGUGCUCGUCUUAUAAGGUACUGUGACGAAAGUCACGGUACC [Sensor 3, v1 - 91 v23] (Eterna round: R97, puzzle: Sensor, turn-off variant 1)",32.4,36.1,–
"UAUUUAAGAGGAUAUACAUGAGGAUCACCCAUGUAUAAUAAAAUACAUGAUUUUUUAUGUAGAAGGCUUGGGUA [-19.1, -18.3 kcal, 36% A] (Eterna round: R97, puzzle: Exclusion 3)",72,21.1,–
"UAUUUGCAAGCGAGAUCCCACAUGAGGAUCACCCAUGUUCUUGGAAAGUACAGAAUUACUGUACAAGCUCGUCUUCU [mod-Eli/newD-last] (Eterna round: R97, puzzle: Sensor, turn-off variant 1)",18.9,20.4,–
"UCAAGUAUGUAGGAUAUCGAUGUCCUUGGACAUCGAGAAGGACGUACAUGAGGAUCACCCAUGUAACUUGCAUG [Exclusion 6 - B - 10:e] (Eterna round: R96, puzzle: Exclusion 6)",–,–,apparent KD of MS2 coat protein [4]: 131 nM
UCAAGUAUGUAGGAUAUCGAUGUCCUUGGACAUCGAGAAGGACGUACAUGAGGAUCACCCAUGUAACUUGCAUG [Exclusion 6 - B - 10:e] (puzzle: Exclusion 6),–,–,apparent KD of MS2 coat protein [1]: 103 nM; apparent KD of MS2 coat protein [2]: 138 nM; apparent KD of MS2 coat protein [3]: 94.5 nM
"UCACAAGCUGUGGGUGGUGACAUGAGGAUCACCCAUGUUUUGCUCGUCUUGUGCCGGGCCCGGCGCCCGGGCCCGGC [-42.1, -69.5, A 12%] (Eterna round: R97, puzzle: Sensor, turn-off variant 1)",929,–,–
"UCACAGGCUGUGGGUGGUGACAUGAGGAUCACCCAUGUUUUGCUCGUCUUGUGCCGGGCCCGGCGCCCGGGCCCGGC [-41.8, -69.2, A 10%] (Eterna round: R97, puzzle: Sensor, turn-off variant 1)",575,1210,–
"UCACCUGGGUCAGGAUAUAAAGGGUCAGGAAGUUUAGAAGGGACUUAGGACAUGAGGAUCACCCAUGUUGAGAACUCGUUUGUA [Eternabot solution 25] (Eterna round: R96, puzzle: Exclusion NG 1)",46.2,36.7,apparent KD of MS2 coat protein [4]: 27.5 nM
"UCAGGCAAGUGUACAGCCAACAUGAGGAUCACCCAUGUCGGGAGAAGGACUGUUACACACCGCUCGUCUUACUUGCC [Eternabot (Original) Solution 35] (Eterna round: R97, puzzle: Sensor, turn-off variant 1)",18.3,23.1,–
"UCAGUUUUGCGAGGAUAUCGACCAUUCCUCUUUACAUGAGGAUCACCCAUGUGCUUAUCCUACAACGAGAAGGCGCUCAUACUC [JR_ExcNG2_Sub065] (Eterna round: R96, puzzle: Exclusion NG 2)",543,574,apparent KD of MS2 coat protein [4]: 580 nM
UCAUAACAUGAGGAUCACCCAUGUCAGGAUAUGAUACUAUGUACUUCGGUACAUAGUAUCAGAAGGGACAUGCU [Brourd's Ex1-3: 12 (nt 72 G)] (puzzle: Exclusion 1),–,–,apparent KD of MS2 coat protein [2]: 135 nM

# — the supplement of paper PMC9170038
